Laboratory results: PMC5019495

How the values were obtained:
Siz1^(167–449) (yeast) = Siz1^(167–449) (yeast) (UniProt Q04195)
[1] = target: Siz1^(167–449)-ΔN18Smt3^K19R/D68RΔGG97/98-L-E-His6 (yeast) (UniProt Q04195)
[2] = target: Siz1^(167–449)-ΔN18Smt3^K19RΔGG97/98-L-E-His6 (yeast) (UniProt Q04195)
Siz1^(167–508) (yeast) = Siz1^(167–508) (yeast) (UniProt Q04195)
[3] = target: Siz1^(167–508)-ΔN18Smt3^K19R/D68RΔGG97/98-L-E-His6 (yeast) (UniProt Q04195)
Chain of Siz1^(167–508)-ΔN18Smt3^K19R/D68RΔGG97/98-L-E-His6 (yeast) (Q04195 whole entry, looked up, stated change not applied, tested part not stated): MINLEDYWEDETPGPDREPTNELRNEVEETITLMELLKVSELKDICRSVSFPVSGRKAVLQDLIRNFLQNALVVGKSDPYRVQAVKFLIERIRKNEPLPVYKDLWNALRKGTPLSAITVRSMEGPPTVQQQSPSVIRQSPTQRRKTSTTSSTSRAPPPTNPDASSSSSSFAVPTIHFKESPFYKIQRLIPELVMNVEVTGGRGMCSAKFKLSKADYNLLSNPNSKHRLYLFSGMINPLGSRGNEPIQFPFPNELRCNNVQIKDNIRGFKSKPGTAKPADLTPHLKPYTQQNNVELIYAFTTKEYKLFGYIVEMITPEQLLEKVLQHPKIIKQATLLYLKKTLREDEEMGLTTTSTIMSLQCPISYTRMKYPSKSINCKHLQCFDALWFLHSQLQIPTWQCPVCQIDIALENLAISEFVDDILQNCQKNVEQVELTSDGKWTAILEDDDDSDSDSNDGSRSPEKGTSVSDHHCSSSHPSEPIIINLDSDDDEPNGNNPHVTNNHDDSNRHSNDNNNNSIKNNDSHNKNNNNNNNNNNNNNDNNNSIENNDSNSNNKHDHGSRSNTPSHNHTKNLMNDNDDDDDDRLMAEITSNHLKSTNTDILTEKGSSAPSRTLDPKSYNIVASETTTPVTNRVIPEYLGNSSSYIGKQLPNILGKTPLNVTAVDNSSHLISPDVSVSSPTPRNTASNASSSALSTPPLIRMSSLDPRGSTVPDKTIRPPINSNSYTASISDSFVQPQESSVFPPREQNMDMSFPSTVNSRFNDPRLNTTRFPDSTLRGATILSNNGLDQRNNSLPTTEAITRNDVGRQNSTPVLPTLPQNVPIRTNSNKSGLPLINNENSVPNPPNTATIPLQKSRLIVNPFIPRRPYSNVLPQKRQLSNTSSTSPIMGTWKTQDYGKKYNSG

Chain of Siz1^(167–508) (yeast) (Q04195 167-508): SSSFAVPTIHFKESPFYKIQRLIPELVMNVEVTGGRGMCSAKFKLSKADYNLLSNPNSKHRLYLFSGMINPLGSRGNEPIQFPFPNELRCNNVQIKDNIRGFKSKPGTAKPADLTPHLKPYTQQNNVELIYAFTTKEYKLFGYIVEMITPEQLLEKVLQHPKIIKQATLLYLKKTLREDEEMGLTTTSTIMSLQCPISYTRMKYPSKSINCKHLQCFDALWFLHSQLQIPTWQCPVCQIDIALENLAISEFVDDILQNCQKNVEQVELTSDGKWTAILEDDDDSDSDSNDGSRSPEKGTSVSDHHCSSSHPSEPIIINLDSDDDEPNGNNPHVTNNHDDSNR
Chain of Siz1^(167–449) (yeast) (Q04195 167-449): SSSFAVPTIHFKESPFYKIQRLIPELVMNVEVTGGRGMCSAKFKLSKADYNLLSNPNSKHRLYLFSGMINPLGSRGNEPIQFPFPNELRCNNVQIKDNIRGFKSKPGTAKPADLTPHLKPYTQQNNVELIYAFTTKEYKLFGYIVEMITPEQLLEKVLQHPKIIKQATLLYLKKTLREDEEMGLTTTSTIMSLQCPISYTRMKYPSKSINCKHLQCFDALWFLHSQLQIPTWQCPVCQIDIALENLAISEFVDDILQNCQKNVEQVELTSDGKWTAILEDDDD
Chain of Siz1^(167–449)-ΔN18Smt3^K19R/D68RΔGG97/98-L-E-His6 (yeast) (Q04195 whole entry, looked up, stated change not applied, tested part not stated): as the sequence (Q04195 whole entry, looked up, stated change not applied, tested part not stated) above
Chain of Siz1^(167–449)-ΔN18Smt3^K19RΔGG97/98-L-E-His6 (yeast) (Q04195 whole entry, looked up, stated change not applied, tested part not stated): as above

Km of the E2-SUMO thioester, K127 product, no additional SUMO (Siz1^(167–449) (yeast)): 1.23 µM
Km of the E2-SUMO thioester, K127 product, with 1.5-fold excess Δ18Smt3ΔGGHIS (Siz1^(167–449) (yeast)): 1.84 µM
Km of the E2-SUMO thioester, K164 product, no additional SUMO (Siz1^(167–449) (yeast)): 0.91 µM
Km of the E2-SUMO thioester, K164 product, with 1.5-fold excess Δ18Smt3ΔGGHIS (Siz1^(167–449) (yeast)): 1.44 µM
Km of the E2-SUMO thioester, K127 product [1]: 4.4 µM
Km of the E2-SUMO thioester, K164 product [1]: 1.02 µM
Km of the E2-SUMO thioester, K127 product [2]: 0.48 µM
Km of the E2-SUMO thioester, K127 product, no additional SUMO (Siz1^(167–508) (yeast)): 2.34 µM
Km of the E2-SUMO thioester, K127 product, with 1.5-fold excess Δ18Smt3ΔGGHIS (Siz1^(167–508) (yeast)): 1.15 µM
Km of the E2-SUMO thioester, K164 product, no additional SUMO (Siz1^(167–508) (yeast)): 0.91 µM
Km of the E2-SUMO thioester, K127 product [3]: 2.07 µM
Substance: Ubc9^K153R-Smt3^K11C/D68R-Alexa488 thioester (from UniProt P50623 1-157; Q12306 1-101) (complex)
